In patent US20180071385A1 (LEIDOS, published 2018):

Biological target: human PD-1 on Jurkat cells (human, UniProt Q15116 25-288)
Assay: cell-based or functional assay

Chain of human PD-1 on Jurkat cells (Q15116 25-288): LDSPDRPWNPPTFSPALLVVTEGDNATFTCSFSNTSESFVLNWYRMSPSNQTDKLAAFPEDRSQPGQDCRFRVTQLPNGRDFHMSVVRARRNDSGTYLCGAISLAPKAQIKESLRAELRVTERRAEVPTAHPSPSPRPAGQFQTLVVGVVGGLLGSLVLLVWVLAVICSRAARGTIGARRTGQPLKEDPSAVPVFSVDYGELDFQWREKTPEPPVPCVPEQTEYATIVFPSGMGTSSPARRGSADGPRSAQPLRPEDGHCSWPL

Binder: QTRTVPMPKIHHPPWQNVVP [peptide QP20]
- EC50 (read off the curve), Fold Inhibition of RLU: ~8 µM
